Positions count from the first letter of the chain named. Values belong to the binder of their own block, whether it stands above or below them.
Experiments:
[1] = biological target: Murine Unc5B (mouse) (UniProt Q8K1S3); test: SPR (ProteOn XPR36), antibody immobilised, murine Unc5B-His as analyte
[2] = biological target: human Unc5B-His (two N-terminal Ig-like domains of Unc5B, amino acid M1 to amino acid V243, C-terminal Histidine tag) (human) (UniProt Q8IZJ1); test: SPR (ProteOn XPR36), antibody immobilised, human Unc5B-His as analyte

Chain of Murine Unc5B (mouse) (Q8K1S3 27-243 limits assumed, form in doubt): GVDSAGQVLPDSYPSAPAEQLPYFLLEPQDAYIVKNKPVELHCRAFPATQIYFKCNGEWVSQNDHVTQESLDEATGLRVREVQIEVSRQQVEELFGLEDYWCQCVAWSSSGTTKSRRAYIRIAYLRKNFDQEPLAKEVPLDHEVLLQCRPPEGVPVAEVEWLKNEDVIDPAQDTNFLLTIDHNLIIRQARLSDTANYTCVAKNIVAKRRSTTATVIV

Kd [1]: 1.1 nM
Kd [2]: 20 nM
B1: YW 88.7 (antibody, part only; not given: constant regions, part only)
heavy chain, part: EVQLVESGGGLVQPGGSLRLSCAASGFTFSDNWISWVRQAPKGLEWVGGIYPAGGYTYYADSVKGRFTISADTSKNTAYLQMSLRAEDTAVYYCAHDIHTRIAVMDYWGQGTLVTVSS
light chain: DIQMTQSPSSLSASVGDRVTITCRASQDVSTAVAWYQQKPGKAPKLLIYSASFLYSGVPSRFSGSGSGTDFTLTISSLQPEDFATYYCQQSYTTPPTFGQGTKVEIKR

Kd [2]: 84 nM
B2: YW 88.64 (antibody, part only; not given: constant regions, part only)
heavy chain, part: EVQLVESGGGLVQPGGSLRLSCAASGFTFSNSGISWVRQAPKGLEWVGYIYPDNGSTNYADSVKGRFTISADTSKNTAYLQMSLRAEDTAVYYCARGVWWFDYWGQGTLVTVSS
light chain: B1 light chain

Kd [2]: 2.9 nM
B3: YW 83.4 (antibody, part only; not given: constant regions, part only)
heavy chain, part: EVQLVESGGGLVQPGGSLRLSCAASGFTFTNYDIHWVRQAPKGLEWVGWISPSGGYTNYADSVKGRFTISADTSKNTAYLQMSLRAEDTAVYYCARQLWAVRGWVMDYWGQGTLVTVSS
light chain: B1 light chain

Kd [2]: 4.1 nM
B4: YW 83.7 (antibody, part only; not given: constant regions, part only)
heavy chain, part: B3 heavy chain, part with N31G, Y32S, D33S, S51T, S53N, L98S, A100V, V101L, V105A
light chain: B1 light chain
